Results published in patent US10066025B2, “Compositions and methods for detecting, treating and preventing diseases and disorders” (YALE UNIVERSITY, priority 2012, dated 2018).

Key:
[1] = cited from earlier work
systemic blood pressure = settings: Xu et al., 2005, cited from earlier work
[2] = tested on: PI3K/AKT and MAPK pathways; experiment: AKT and MAPK signaling and Bcl-2 expression by western blot; type: cell-based, human
Procedure: FIG. 12, comprising FIGS. 12A through 12E, is a set of images and graphs showing renalase upregulates Bcl-2, activates PI3K/AKT, ERK, p38, and inhibits JNK. Western blot analysis; P− indicates phosphorylated, activated proteins; signals normalized to GAPDH loading control, then changes in protein phosphorylation (increase=activation, decrease=inhibition) from time 0 are calculated. FIG. 12A: HK-2 and HUVEC cells incubated with renalase for 24 hrs; FIG. 12B: Western blot of time course of AKT and MAPK signaling by renalase, HK-2 cells incubated with renalase for indicated time; changes over baseline in 4c-d are significant (p<0.05); FIG. 12C: Activation of AKT(T308), AKT(5473) and ERK; FIG. 12D: Inhibition of JNK; FIG. 12E: Marked and sustained (60 min) upregulation of p38 by renalase in the presence of cisplatin, western blot for time course, REN=renalase, CP=cisplatin.
MAPK signaling by renalase and renalase peptides. Western blot analysis; ERK: Extracellular signal-Regulated Kinase 1 and 2; JNK: c-Jun N-terminal Kinases; AKT: protein kinase B; p-indicates phosphorylated, activated proteins; representative blot, n=3 (FIG. 20A). Renalase activates AKT (FIG. 20B). Western blot analysis; P− indicates phosphorylated, activated proteins Representative blot, n=3 (FIG. 20B, left panel). Signals normalized to GAPDH loading control; n=3, change over baseline statistically significant (P<0.05) from 1-60 min for ERK, p38 and AKT (T308), and at 30 min only for AKT (S473) (FIG. 20B, right panel). ERK or AKT inhibition abrogates protective effect of RP-H220 (FIG. 20C). Plasma creatinine levels from mice subjected to sham-surgery or to renal ischemia and reperfusion (IR); Renalase WT mice were subjected to sham-surgery or to 30 min renal IR. For mice subjected to renal IR, RP-H220 or vehicle (saline) was injected 10 min prior to renal ischemia. Some animals were pretreated with either the ERK inhibitor PD98059 or the PI3K/AKT inhibitor wortmanin. (N=6-8 per group). *: P<0.05 vs. vehicle-treated mice subjected to sham-surgery; #: P<0.05 vs. vehicle-treated WT mice subjected to renal IR (FIG. 20C).

[3] = tested on: renal ischemia/reperfusion (IR) injury; experiment: Histological detection of necrosis, apoptosis, neutrophil and macrophage infiltration after renal IR; type: in vivo, mice
Procedure: Adult male renalase deficient (KO) mice (Wu et al., 2011, Kidney Int 79: 853-860) on a C57BL/6 background were subjected to renal ischemia/reperfusion (IR) as described (Kim et al., 2009, Kidney Int 75: 809-823; Kim et al., 2010, Am J Physiol Renal Physiol 299(2):[…]-58). Renalase KO or wild type (WT) mice (C57BL/6 from Harlan Labs, Indianapolis, Ind.) were subjected to sham-operation or to 20 min. (moderate) or 30 min. (severe) renal ischemia and 24 hr. reperfusion. To test the renal protective effects of recombinant human renalase, mice were pretreated with saline (vehicle) or with recombinant renalase (0.5, 1.5 or 4.5 mg/kg, s.c.) 10 min. prior to 30 min. renal ischemia. It was also tested whether renalase treatment after completion of renal ischemia also provides renal protection. Separate cohorts of mice were treated with saline or with renalase (1.5 mg/kg, s.c.) 30 min. or 60 min. after reperfusion of the ischemic kidney. To test whether blocking alpha receptors would mimic the renal protective effects of human recombinant renalase administration, phentolamine (an alpha receptor antagonist, 5 mg/kg, i.p.) was given in some mice 15 min. before renal ischemia. An established grading scale of necrotic injury (0-4, Renal Injury Score) to the proximal tubules was used for the histopathological assessment of IR-induced damage as outlined by Jablonski et al. (1983, Transplantation 35: 198-204) and as described in previous studies (Lee et al., 2004, J Am Soc Nephrol 15: 102-111; Lee et al., 2004, Am J Physiol Renal Physiol 286: […]-[…]). Apoptosis was detected after renal IR with TUNEL staining as described (Park et al., 2011, Lab Invest 91: 63-84) using a commercially available in situ cell death detection kit (Roche, Indianapolis, Ind.) according to the instructions provided by the manufacturer. Kidney neutrophil and macrophage infiltrations were assessed with immunohistochemistry 24 hr. after IR as described previously (Park et al., 2011, Lab Invest 91: 63-84). Neutrophils and macrophages infiltrating the kidney were quantified in 5-7 randomly chosen 200× (neutrophils) or 400× (macrophages) microscope images fields in the corticomedullary junction and results were expressed as neutrophils counted per 200-400× field.

HK-2 cells [4] = experiment: HK-2 cell necrosis induced with 2 mM H2O2 (LDH release); type: cell-based, human
Procedure: (§1) HK2 cells (human proximal tubular line) obtained from ATTC (Manassas, Va., USA) were cultured in DMEM/F12 supplemented with glutamine, 10% FBS and antibiotics, and were maintained at 37° C. in 5% CO2. Cells were exposed to cisplatin (20 μM) in the presence or absence of renalase for 24 hrs, and cell viability was assessed by the WST1 method (Roche Applied Science, Germany). Cells were then harvested in RIPA buffer (20 mM Tris-HCl pH 7.5, 150 mM NaCl, 1 mM Na2EDTA, 1 mM EGTA, 1% NP-40, 1% sodium deoxycholate, 2.5 mM sodium pyrophosphate, 1 mM β-glycerophosphate, 1 mM Na3VO4, 1 μg/ml leupeptin) supplemented with a protease and phosphatase inhibitor cocktail (Roche Applied Science, Germany). Proteins were separated by SDS-PAGE and Western blotting was carried out using the following antibodies: anti-renalase monoclonal (Desir et al., 2012, J Am Heart Assoc. 1:e002634; (Lee et al., 2013, J Am Soc Nephrol 24:445-455); anti caspase 3 (Cell Signaling Technology, MA, USA) and anti Bcl2 (Thermo Scientific, USA). Necrotic injury in HK-2 cells (ATCC, Manassas, Va.) was induced with exposure to 2 mM H2O2 for 2-8 hr and lactate dehydrogenase (LDH) released into cell culture media was measured as described using a commercial LDH assay kit (Promega, Madison, Wis.) (Lee and Emala, 2002, American journal of physiology. Renal physiology 282:F844-852).

[5] = tested on: renal ischemia/reperfusion (IR) injury; experiment: Murine model of renal ischemia/reperfusion (IR) injury, plasma creatinine; type: in vivo, mice
Procedure: (§2) Adult male renalase deficient (KO) mice (Wu et al., 2011, Kidney Int 79: 853-860) on a C57BL/6 background were subjected to renal ischemia/reperfusion (IR) as described (Kim et al., 2009, Kidney Int 75: 809-823; Kim et al., 2010, Am J Physiol Renal Physiol 299(2):F347-58). Renalase KO or wild type (WT) mice (C57BL/6 from Harlan Labs, Indianapolis, Ind.) were subjected to sham-operation or to 20 min. (moderate) or 30 min. (severe) renal ischemia and 24 hr. reperfusion. To test the renal protective effects of recombinant human renalase, mice were pretreated with saline (vehicle) or with recombinant renalase (0.5, 1.5 or 4.5 mg/kg, s.c.) 10 min. prior to 30 min. renal ischemia. It was also tested whether renalase treatment after completion of renal ischemia also provides renal protection. Separate cohorts of mice were treated with saline or with renalase (1.5 mg/kg, s.c.) 30 min. or 60 min. after reperfusion of the ischemic kidney. To test whether blocking alpha receptors would mimic the renal protective effects of human recombinant renalase administration, phentolamine (an alpha receptor antagonist, 5 mg/kg, i.p.) was given in some mice 15 min. before renal ischemia.
Plasma creatinine was measured as described with an enzymatic creatinine reagent kit according to the manufacturer's instructions (Thermo Fisher Scientific, Waltham, Mass.) (Slot, 1965, J Clin Lab Invest 17: 381-387).
After animal care and use committee approval, adult male C57BL/6 (Harlan Labs, Indianapolis, Ind.) were subjected to sham-operation or to 30 minutes of renal ischemia followed by 24 hrs of reperfusion as previously described (Lee et al., 2004, American journal of physiology. Renal physiology 286:F298-306). To test the renal protective effects of renalase peptides (RP-220, RP-H220 and RP-224), mice were pretreated with saline (vehicle) or with renalase peptides (100 μg subcutaneous) 10 to 30 minutes prior to renal ischemia.
Blood was collected from mice anesthetized with isoflurane via cardiac puncture into a heparinized syringe and was subsequently centrifuged to separate plasma. Samples were submitted to the Yale O'Brien Kidney Center for measurement of BUN and creatinine. Plasma creatinine was measured either by an enzymatic creatinine reagent kit according to the manufacturer's instructions (Thermo Fisher Scientific, Waltham, Mass.) or by HPLC. These methods of creatinine measurement largely eliminate the interferences from mouse plasma chromagens, known to occur with the Jaffe method.

HK-2 cells [6] = experiment: HK-2 cell cisplatin toxicity (WST-1 viability, western blot); type: cell-based, human; settings: 20 μM cisplatin, 24 hrs
Procedure: Cultured HK-2 cells were incubated with 20 μM cisplatin for 24 hours with and without recombinant renalase. Renalase expression was examined by Western blot and cell viability (mitochondrial integrity) was determined spectrophotometrically using WST-1, a tetrazolium salt that is cleaved, by mitochondrial dehydrogenases of metabolically active and viable cells, to formazan (420-480 nm) (Boehringer Mannheim, Germany).
as §1

plasma norepinephrine = experiment: Plasma norepinephrine after renal IR (ELISA); type: in vivo; settings: 1.5 mg/kg; mice subjected to renal IR; vehicle 2.4±0.13 ng/mL
Procedure: as §2
Plasma norepinephrine in mice subjected to sham-operation or to renal IR was measured with a commercial ELISA kit according to the manufacturer's instructions (Rocky Mountain Diagnostics, Colorado Springs, Colo.).

[7] = treated before renal ischemia, 30 min. ischemia, 24 hr. reperfusion

B1: recombinant renalase: human recombinant renalase, 38 kDa FAD-dependent amine oxidase; renalase polypeptide SEQ ID NO: 9 or 10 (protein, UniProt Q5VYX0 18-342, looked up)
Renalase: ALLRRQTSGPLYLAVWDKAEDSGGRMTTACSPHNPQCTADLGAQYITCTPHYAKKHQRFYDELLAYGVLRPLSSPIEGMVMKEGDCNFVAPQGISSIIKHYLKESGAEVYFRHRVTQINLRDDKWEVSKQTGSPEQFDLIVLTMPVPEILQLQGDITTLISECQRQQLEAVSYSSRYALGLFYEAGTKIDVPWAGQYITSNPCIRFVSIDNKKRNIESSEIGPSLVIHTTVPFGVTYLEHSIEDVQELVFQQLENILPGLPQPIATKCQKWRHSQVTNAAANCPGQMTLHHKPFLACGGDGFTQSNFDGCITSALCVLEALKNYI
increase in rate of epinephrine metabolism in the presence of NADH [1]: 18 fold
reduction of mean arterial pressure (systemic blood pressure; 4 mg/kg dose): ~40%
blood pressure when injected into rodents (systemic blood pressure): marked decrease in blood pressure
Bcl-2 expression ([2]; HK-2 and human vein endothelial cells (HUVEC) at 24 hrs): upregulates Bcl-2 expression
decrease in JNK-p54/p46 phosphorylation ([2]; HK-2 cells): ~95%
AKT and MAPK signaling (phosphorylation of ERK, p38, AKT) ([2]; HK-2 cells in culture): rapid and transient increase in phosphorylated
activation of AKT ([2]; at 15 min, HK-2 cells): ~45 fold
activation of ERK ([2]; at 15 min, HK-2 cells): ~35 fold
activation of AKT and p38 ([2]; cells treated with cisplatin): marked and sustained activation
apoptotic TUNEL-positive cells in the kidney ([3]; 1.5 mg/kg s.c. 10 min. before renal ischemia): significantly reduced the number of apoptotic TUNEL-positive cells
renal histological injury (hematoxylin and eosin) ([3]; 1.5 mg/kg, renalase WT mice vs. vehicle): dramatically reduced injury
Jablonski scale renal injury score (0-4) ([3]; renalase WT mice, 30 min. renal IR, 24 hr. after IR, vs. vehicle): significantly lower renal injury scores
macrophages infiltrating the kidney after IR (F4/80) [3, 7]: significantly reduced number of macrophages
neutrophils infiltrating the kidney after IR [3, 7]: significantly reduced number of neutrophils
LDH released at 6 hr (HK-2 cells [4]; 10 μg/ml, 2 mM H2O2, vehicle LDH=47+3%): 28±2%
necrosis induced with 2 mM H2O2 (HK-2 cells [4]; vs. vehicle-treated HK-2 cells): significantly reduced necrosis
protection against renal IR injury, post-ischemic treatment ([5]; 1.5 mg/kg given 30 min. after reperfusion): protective against renal IR injury
renal protection at higher dose compared with 1.5 mg/kg ([5]; 4.5 mg/kg s.c. 10 min. before renal ischemia): provided reduced renal protection
increases in plasma creatinine after renal IR ([5]; 0.5, 1.5 or 4.5 mg/kg s.c. 10 min. before 30 min. renal ischemia, 24 hr. reperfusion): significantly attenuated the increases in plasma creatinine
protection against renal IR injury, post-ischemic treatment ([5]; given 60 min. after reperfusion): did not provide renal protection
plasma creatinine ([5]; recombinant renalase 1.5 mg/kg, 30 min. warm ischemia, decreased from ~2.4 mg/dL): 1.4 mg/dL
cell survival / protection against cisplatin toxicity (HK-2 cells [6]): improved HK-2 cell survival
cell survival / protection against cisplatin toxicity (HK-2 cells [6]; listed as exogenous renalase): reversed
Bcl-2 expression (HK-2 cells [6]; western blot): increased Bcl-2 expression
caspase-3 activation (HK-2 cells [6]; western blot): decreased caspase-3 activation
cellular renalase expression (HK-2 cells [6]; western blot): restored cellular renalase expression
caspase-3 activation (HK-2 cells [6]; western blot, listed as Renalase): inhibited caspase-3 activation
plasma norepinephrine (plasma norepinephrine): 1.6 ± 0.2 ng/mL
